# Measured values as given in paper PMC3621618, “Comparative measurement of CNP and NT-proCNP in human blood samples: a methodological evaluation” (Journal of Negative Results in Biomedicine, 2013).
# B1: ProCNP: pro-peptide of CNP, reported stable per the manufacturer's protocol (peptide, UniProt P23582 24-126, looked up)
# pro-form: KPGAPPKVPRTPPAEELAEPQAAGGGQKKGDKAPGGGGANLKGDRSRLLRDLRVDTKSRAAWARLLQEHPNARKYKGANKKGLSKGCFGLKLDRIGSMSGLGC
# modifications: pro-form
# What was measured:
# [1] = human serum and full blood (EDTA), room temperature, 30 min and 2 hours; CNP-22 EIA; n = 12
# Experimental: We studied 12 male volunteers (mean age 29 ± 2 years, normal weight, no drug therapy, no history of cardiovascular or other diseases, 3 smokers). From all investigated subjects informed consent was obtained. Triplets of fasting blood samples were taken from all volunteers at 8 o’clock in the morning. Blood samples were collected using the 7.5 ml S-Monovette® collection system (Sarstedt, Nümbrecht, Germany) containing either clotting activator (Kaolin) for serum samples, sodium-citrate for plasma samples or Potassium–EDTA for full blood samples. All samples for baseline analyses were immediately centrifuged at 2,000 × g for 10 min at 4°C and supernatant was stored at −70°C until analysis. For mid-term analyses (30 minutes or 2 hours), plasma samples were centrifuged at 2,000 × g for 10 min at room temperature. Supernatant was removed and stored at room temperature for 30 min or 2 hours. Following blood clotting, serum samples were processed identically to plasma samples. Supernatant was saved and also stored at room temperature for 30 min or 2 hours. Full blood samples were stored at room temperature without centrifugation. […] The concentration of CNP was measured using the CNP-22 EIA Kit (#EK-012-03, Phoenix Pharmaceuticals, Karlsruhe, Germany) according to the manufacturer’s protocol. […] Data were analyzed using MedCalc® for Windows, Version 10.0.1.0 (MedCalc Software, Mariakerke, Belgium).
# [2] = unknown storage conditions of blood samples; ref manufacturer's protocol; cited from earlier work
# Experimental: Consequently, the stability of the CNP peptide is most likely not affected by any delay in sample processing for at least two hours. ProCNP has already been reported (manufacturer’s protocol, unknown storage conditions of blood samples) to be stable for at least 2.5 hours. Accordingly, our experiments confirmed the stability of NT-proCNP even at room temperature.
molecule,measurement,setting,value
C-type natriuretic peptide [CNP],stability of CNP in serum and full blood samples,[1],stable in serum and in full blood samples for at least two hours at room temperature
B1,time for which ProCNP is stable,[2],at least 2.5 hours
